Key:
human PD-L1 His [1] = target: human PD-L1 His (human); experiment: SPR, 25C
human PD-L1 His [2] = target: human PD-L1 His (human); experiment: ELISA, competition with PD-1
human PD-L1 His [3] = target: human PD-L1 His (human); experiment: SPR, 37C
cyno PD-L1 FLAG = cyno PD-L1 FLAG (cynomolgus); experiment: SPR, 37C
human PD-L1 His [4] = target: human PD-L1 His (human); experiment: ELISA, competition with CD80
human PD-L1 His [5] = target: human PD-L1 His (human); experiment: ELISA, competition with PD-1; remark: listed apart in the source
human PD-L1 His [6] = target: human PD-L1 His (human); experiment: SPR, 25C; remark: listed apart in the source
human PD-L1 His [7] = target: human PD-L1 His (human); experiment: SPR
TIGIT = target: T1, TIGIT (human, UniProt Q495A1); experiment: SPR
T1 chain: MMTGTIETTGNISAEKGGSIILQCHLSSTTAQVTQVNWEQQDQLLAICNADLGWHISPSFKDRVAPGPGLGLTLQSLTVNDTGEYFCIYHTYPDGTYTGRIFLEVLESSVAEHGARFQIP

cyno PD-L1 FLAG (cynomolgus), sequence (chain, as listed by the source): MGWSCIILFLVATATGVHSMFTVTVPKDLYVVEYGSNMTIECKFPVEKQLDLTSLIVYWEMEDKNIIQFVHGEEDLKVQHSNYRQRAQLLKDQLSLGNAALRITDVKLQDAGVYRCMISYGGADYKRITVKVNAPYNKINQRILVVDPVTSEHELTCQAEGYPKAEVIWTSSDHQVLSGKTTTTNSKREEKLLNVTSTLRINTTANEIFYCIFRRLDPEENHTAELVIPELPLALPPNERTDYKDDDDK

B1: 1D05 VH V to A (antibody, V domains shown)
VH: EVQLVESGGGLVQPGRSLRLSCAASGFTFDDYAMHWVRQAPGKGLEWVSGISWIRTGIGYADSVKGRFTIFRDNAKNSLYLQMNSLRAEDTALYYCAKDMKGSGTYGGWFDTWGQGTLVTVSS
VL: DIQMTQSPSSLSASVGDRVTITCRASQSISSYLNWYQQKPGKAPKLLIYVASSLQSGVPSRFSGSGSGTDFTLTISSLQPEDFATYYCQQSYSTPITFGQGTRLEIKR
- Kd (human PD-L1 His [1]): 0.33 nM

B2: 1D05 VH F to S (antibody, V domains shown)
VH: EVQLVESGGGLVQPGRSLRLSCAASGFTFDDYAMHWVRQVPGKGLEWVSGISWIRTGIGYADSVKGRFTISRDNAKNSLYLQMNSLRAEDTALYYCAKDMKGSGTYGGWFDTWGQGTLVTVSS
VL: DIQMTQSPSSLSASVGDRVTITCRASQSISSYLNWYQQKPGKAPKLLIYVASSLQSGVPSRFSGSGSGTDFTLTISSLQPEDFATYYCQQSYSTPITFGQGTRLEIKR
- Kd (human PD-L1 His [1]): 0.23 nM

B3: 84G09 (antibody, V domains shown)
VH: EVQLVESGGGLVQPGRSLRLSCAASGFTFDDYAMHWVRQTPGKGLEWVSGISWKSNIIGYADSVKGRFTISRDNAKNSLYLQMNSLRAEDTALYYCARDITGSGSYGWFDPWGQGTLVTVSS
VL: DIQMTQSPSSLSASVGDRVTITCRASQSISSYLNWYQQKPGKAPKPLIYVASSLQSGVPSSFSGSGSGTDFTLTISSLQPEDFATYYCQQSYSNPITFGQGTRLEIK
- IC50 (human PD-L1 His [2]): 7.9 nM
- Kd (human PD-L1 His [3]): 0.43 nM
- Kd (cyno PD-L1 FLAG): 0.52 nM

B4: 1D05 IC46 (D1-9) (antibody)
chain 1: EVQLVESGGGLVQPGRSLRLSCAASGFTFDDYAMHWVRQVPGKGLEWVSGISWIRTGIGYADSVKGRFTIFRDNAKNSLYLQMNSLRAEDTALYYCAKDMKGSGTYGGWFDTWGQGTLVTVSS
chain 2: not shown
- IC50 (human PD-L1 His [4]): 1.07 nM
- IC50 (human PD-L1 His [5]): 1.75 nM
- Kd (human PD-L1 His [6]): 0.195 nM

B5: Bispecific 2, PD-L1 arm (antibody)
chain 1: EVQLVESGGGLVQPGRSLRLSCAASGFTFDDYAMHWVRQVPGKGLEWVSGISWIRTGIGYADSVKGRFTIFRDNAKNSLYLQMNSLRAEDTALYYCAKDMKGSGTYGGWFDTWGQGTLVTVSS
chain 2: not shown
- Kd (human PD-L1 His [7]): 0.21 nM

B6: 1D05 VH V to A and F to S (antibody, V domains shown)
VH: EVQLVESGGGLVQPGRSLRLSCAASGFTFDDYAMHWVRQAPGKGLEWVSGISWIRTGIGYADSVKGRFTISRDNAKNSLYLQMNSLRAEDTALYYCAKDMKGSGTYGGWFDTWGQGTLVTVSS
VL: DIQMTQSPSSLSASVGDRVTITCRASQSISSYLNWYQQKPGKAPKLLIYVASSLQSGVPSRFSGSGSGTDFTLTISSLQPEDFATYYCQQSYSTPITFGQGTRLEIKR
- Kd (human PD-L1 His [1]): 0.23 nM

B7: Bispecific 1, PD-L1 arm (antibody)
chain 1: EVQLVESGGGLVQPGRSLRLSCAASGFTFDDYAMHWVRQVPGKGLEWVSGISWIRTGIGYADSVKGRFTIFRDNAKNSLYLQMNSLRAEDTALYYCAKDMKGSGTYGGWFDTWGQGTLVTVSS
chain 2: not shown
- Kd (human PD-L1 His [7]): 0.27 nM

B8: 1D05 (antibody)
chain 1: EVQLVESGGGLVQPGRSLRLSCAASGFTFDDYAMHWVRQVPGKGLEWVSGISWIRTGIGYADSVKGRFTIFRDNAKNSLYLQMNSLRAEDTALYYCAKDMKGSGTYGGWFDTWGQGTLVTVSS
chain 2: not shown
- binding result (TIGIT): no binding
- Kd (human PD-L1 His [3]): 0.42 nM
- Kd (cyno PD-L1 FLAG): 0.43 nM
- Kd (human PD-L1 His [7]): 0.35 nM

B9: 1D05 D9-7 (antibody)
chain 1: EVQLVESGGGLVQPGRSLRLSCAASGFTFDDYAMHWVRQVPGKGLEWVSGISWIRTGIGYADSVKGRFTIFRDNAKNSLYLQMNSLRAEDTALYYCAKDMKGSGTYGGWFDTWGQGTLVTVSS
chain 2: not shown
- IC50 (human PD-L1 His [4]): 0.7 nM
- Kd (human PD-L1 His [6]): 0.2 nM

B10: 1D05 IC64 (D5-7) (antibody)
chain 1: EVQLVESGGGLVQPGRSLRLSCAASGFTFDDYAMHWVRQVPGKGLEWVSGISWIRTGIGYADSVKGRFTIFRDNAKNSLYLQMNSLRAEDTALYYCAKDMKGSGTYGGWFDTWGQGTLVTVSS
chain 2: not shown
- Kd (human PD-L1 His [6]): 0.214 nM

B11: 1D05 IC45 (D5-9) (antibody)
chain 1: EVQLVESGGGLVQPGRSLRLSCAASGFTFDDYAMHWVRQVPGKGLEWVSGISWIRTGIGYADSVKGRFTIFRDNAKNSLYLQMNSLRAEDTALYYCAKDMKGSGTYGGWFDTWGQGTLVTVSS
chain 2: not shown
- Kd (human PD-L1 His [6]): 0.203 nM

B12: 1D05 VH V to A, VL V to A (antibody, V domains shown)
VH: EVQLVESGGGLVQPGRSLRLSCAASGFTFDDYAMHWVRQAPGKGLEWVSGISWIRTGIGYADSVKGRFTIFRDNAKNSLYLQMNSLRAEDTALYYCAKDMKGSGTYGGWFDTWGQGTLVTVSS
VL: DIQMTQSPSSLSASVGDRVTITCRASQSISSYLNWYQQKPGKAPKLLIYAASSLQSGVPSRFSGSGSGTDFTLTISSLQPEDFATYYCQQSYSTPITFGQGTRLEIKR
- Kd (human PD-L1 His [1]): 2.8 nM
